Data as given in US8703915B2, “Mutant proteins and methods for producing them” (Heptares Therapeutics Limited, priority 2009, dated 2014).

B1: M4: parent human M4 muscarinic receptor (protein, UniProt P08173 1-479, looked up)
Muscarinic acetylcholine …: MANFTPVNGSSGNQSVRLVTSSSHNRYETVEMVFIATVTGSLSLVTVVGNILVMLSIKVNRQLQTVNNYFLFSLACADLIIGAFSMNLYTVYIIKGYWPLGAVVCDLWLALDYVVSNASVMNLLIISFDRYFCVTKPLTYPARRTTKMAGLMIAAAWVLSFVLWAPAILFWQFVVGKRTVPDNQCFIQFLSNPAVTFGTAIAAFYLPVVIMTVLYIHISLASRSRVHKHRPEGPKEKKAKTLAFLKSPLMKQSVKKPPPGEAAREELRNGKLEEAPPPALPPPPRPVADKDTSNESSSGSATQNTKERPATELSTTEATTPAMPAPPLQPRALNPASRWSKIQIVTKQTGNECVTAIEIVPATPAGMRPAANVARKFASIARNQVRKKRQMAARERKVTRTIFAILLAFILTWTPYNVMVLVNTFCQSCIPDTVWSIGYWLCYVNSTINPACYALCNATFKKTFRHLLLCQYRNIGTAR
B2: L366: 5HT2C receptor mutant, residue 7.51 (L366, L in NPLVY) to alanine (protein, UniProt P28335 33-458, looked up, variant L366A)
5-hydroxytryptamine receptor …: IVTDIFNTSDGGRFKFPDGVQNWPALSIVIIIIMTIGGNILVIMAVSMEKKLHNATNYFLMSLAIADMLVGLLVMPLSLLAILYDYVWPLPRYLCPVWISLDVLFSTASIMHLCAISLDRYVAIRNPIEHSRFNSRTKAIMKIAIVWAISIGVSVPIPVIGLRDEEKVFVNNTTCVLNDPNFVLIGSFVAFFIPLTIMVITYCLTIYVLRRQALMLLHGHTEEPPGLSLDFLKCCKRNTAEEENSANPNQDQNARRRKKKERRPRGTMQAINNERKASKVLGIVFFVFLIMWCPFFITNILSVLCEKSCNQKLMEKLLNVFVWIGYVCSGINPAVYTLFNKIYRRAFSNYLRCNYKVEKKPPVRQIPRVAATALSGRELNVNIYRHTNEPVIEKASDNEPGIEMQVENLELPVNPSSVVSERISSV
B3: 5HT2C: wild type (parent) human 5HT2C receptor (protein, listed as Homo sapiens)
chain: MVNLRNAVHSFLVHLIGLLVWQCDISVSPVAAIVTDIFNTSDGGRFKFPDGVQNWPALSIVIIIIMTIGGNILVIMAVSMEKKLHNATNYFLMSLAIADMLVGLLVMPLSLLAILYDYVWPLPRYLCPVWISLDVLFSTASIMHLCAISLDRYVAIRNPIEHSRFNSRTKAIMKIAIVWAISIGVSVPIPVIGLRDEEKVFVNNTTCVLNDPNFVLIGSFVAFFIPLTIMVITYCLTIYVLRRQALMLLHGHTEEPPGLSLDFLKCCKRNTAEEENSANPNQDQNARRRKKKERRPRGTMQAINNERKASKVLGIVFFVFLIMWCPFFITNILSVLCEKSCNQKLMEKLLNVFVWIGYVCSGINPLVYTLFNKIYRRAFSNYLRCNYKVEKKPPVRQIPRVAATALSGRELNVNIYRHTNEPVIEKASDNEPGIEMQVENLELPVNPSSVVSERISSV
B4: CRF1-WT: wild type human CRF1 receptor (protein, UniProt P34998 24-415, looked up)
Corticotropin-releasing …: SLQDQHCESLSLASNISGLQCNASVDLIGTCWPRSPAGQLVVRPCPAFFYGVRYNTTNNGYRECLANGSWAARVNYSECQEILNEEKKSKVHYHVAVIINYLGHCISLVALLVAFVLFLRLRSIRCLRNIIHWNLISAFILRNATWFVVQLTMSPEVHQSNVGWCRLVTAAYNYFHVTNFFWMFGEGCYLHTAIVLTYSTDRLRKWMFICIGWGVPFPIIVAWAIGKLYYDNEKCWFGKRPGVYTDYIYQGPMILVLLINFIFLFNIVRILMTKLRASTTSETIQYRKAVKATLVLLPLLGITYMLFFVNPGEDEVSRVVFIYFNSFLESFQGFFVSVFYCFLNSEVRSAIRKRWHRWQDKHSIRARVARAMSIPTSPTRVSFHSIKQSTAV

Key:
M4 muscarinic receptor = assay: Thermostability of M4 muscarinic receptor bound to antagonist NMS; format: physicochemical, human; conditions: bound to antagonist NMS
Experimental: In order to stabilise the M4 muscarinic receptors in antagonist conformation, a systematic alanine-scan was performed to identify mutations that stabilise receptors bound to the muscarinic antagonist, NMS. […] However, L71A (three residues N-terminal of the L2.46) was identified as a stabilising mutation. This mutation increases the Tm of this receptor by about 2° C. (FIG. 8a).
(§1) A2AR-(2-316) expression was carried out by using the pRG/III-hs-MBP E. coli expression vector and DH5α cells. Cells were grown at 37° C. in 2 L flasks containing 500 mL of 2×TY medium supplemented with Ampicillin (100 μg/mL) and glucose (0.2% w/v). At OD600≈0.7, IPTG and theophylline were added at final concentrations respectively of 0.5 mM and 100 μM, and the temperature was reduced to 20° C. After 22 to 24 hours, cells were harvested in aliquots of 14 mL, centrifuged for 30 min and stored at −20° C. Both 5HT2C and M4 receptors were transiently expressed in HEK293T cells using GeneJuice transfection reagent used according to the manufacturers guidelines.
Transiently transfected mammalian cells expressing M4 were harvested about 40 hours post transfection and the receptors were solubilised in 50 mM Tris pH 7.5/250 mM NaCl/1% DDM/EDTA free protease inhibitor mix for 1 hour rotating at 4° C. The solubilised lysate was then cleared by centrifugation at 13000 rpm for 15 minutes at 4° C. The solubilised receptors were then purified on Ni-NTA beads and eluted with 100 mM histidine. The eluted receptor was used in radioligand binding assay. Thermostability of M4 was measured using 25 μL of purified receptor mixed with 95 μL of 12 nM [^3H]-NMS (final concentration of 10 nM). The sample was incubated for 60 min at 4° C., then 30 min at the specified temperature and then 30 min at 4° C. Receptor bound and free radioligand were separated using a 96-well plate gel filtration assay.

5HT2C receptor [1] = assay: Antagonist binding to 5HT2C NPxxY motif alanine mutants (Table 1); design: species or system human; Average / Average - BG: unit not given here; conditions: for % of Wildtype binding / DPM1 / DPM2: antagonist Mesulergine binding; for DPM1: replicate 1; for DPM2: replicate 2; for Average - BG: average minus background; for Average: average of DPM1 and DPM2
Experimental: An alanine scan was carried out in a similar fashion on an adenosine A2A receptor along with the 5HT2C receptor in the presence of the antagonist Mesulergine. Both alanine scans were carried out in order to further stabilize the antagonist conformation. […] The motif in Adenosine A2A is NPFIY (SEQ ID NO: 364) and for the 5HT2C is NPLVY (SEQ ID NO: 363). Therefore mutations in this region of the receptor contain stabilising mutations specific to the agonist conformation and detrimentally effect antagonist binding.
(§2) 5HT2C receptor was solubilised from transiently transfected mammalian cells about 40 hours post transfection, in 50 mM Hepes pH7.4/100 mM KCl/0.5% DDM/(0.1% CHS/0.6% CHAPS was added to cells for SCH23390 agonist assay) and protease inhibitor. Cell lysates were left at 4° C. on a rotator and then cleared by centrifugation at 13,200 rpm for 20 minutes at 4° C. Thermostability analysis was performed directly on the soluble lysate. The Tm was determined by incubating 108 μl of the lysate with [N^6-methyl-^3H]Mesulergine radioligand at a final concentration of 17 nM or 9 nM [^3H]SCH23390 for one hour at 4° C. The six ligand incubations are then incubated at six different temperatures from 25° C. to 55° C., for thirty minutes. Receptor bound and free radioligand were separated using G25 Sephadex spin columns.

5HT2C receptor [2] = assay: Thermostability of 5HT2C receptor bound to agonist SCH23390; format: physicochemical, human
Experimental: An alanine scan has been carried out on the 5HT2C receptor in the presence of the agonist SCH23390 in order to stabilise the agonist conformation. Similar to A2A, it appears that mutating L2.46 (L95 in 5HT2C) to alanine confers significant stability on this receptor increasing the Tm of the receptor by 5.4° C. (FIG. 7). It is notable that in addition to L95, mutating the nearby M93 (two residues away from L2.46) to alanine also confers stability to the agonist bound receptor, resulting in an increase of 2.9° C.
as §1
(§3) 5HT2C receptor was solubilised from transiently transfected mammalian cells in 50 mM Hepes pH7.4, 100 mM KCl, 0.5% DDM (0.1% CHS/0.6% CHAPS was added to cells for SCH23390 agonist assay). Tm analysis was performed directly on the soluble lysate. The Tm was determined by incubating 108 μl of the lysate with [N^6-methyl-^3H]Mesulergine radioligand at a final concentration of 17 nM or 9 nM [^3H]SCH23390 for one hour at 4° C. The six ligand incubations are then incubated at six different temperatures from 25° C. to 55° C., for thirty minutes. Receptor bound and free radioligand were separated using a 96-well plate gel filtration assay.
as §2

5HT2C receptor [3] = assay: Two point thermostability assay, SCH23390 agonist binding to 5HT2C alanine scan mutants; format: physicochemical, human
Experimental: An alanine scan has been carried out on the 5HT2C receptor in the presence of the agonist SCH23390 in order to stabilise the agonist conformation.
as §2

5HT2C receptor [4] = assay: Thermostability of 5HT2C receptor bound to antagonist mesulergine; format: physicochemical, human; conditions: bound to antagonist (mesulergine)
Experimental: as §1, §3

CRF1 = assay: Thermostability of CRF1 bound to antagonist CP-376395, purified in DDM; format: physicochemical, human; conditions: antagonist-bound state (CP-376395), purified in DDM
Experimental: In order to stabilise CRF1 in the antagonist conformation, a systematic alanine-scan was performed to identify mutations that stabilise receptors bound to the antagonist ligand CP-376395. Mutating I2.58 to alanine (I163A) confers significant stabilisation in CRF1, increasing the thermal stability by 3.9 (±0.5)° C. (FIG. 15).
CRF1 receptors were transiently expressed in HEK293T cells on 10 cm plates using GeneJuice transfection reagent used according to manufacturers guidelines.
Cells expressing CRF1 were harvested in PBS approximately 40 hours post-transfection and re-suspended in 950 μl Re-suspension buffer (50 mM Tris-HCl, 150 mM NaCl, 2× Complete EDTA-free Protease inhibitor cocktail (Roche), pH7.5). Cells were incubated with 120 nM CP-376395 and 30 nM [^3H]-CP-376395 at 37° C. for 2 hours before transferring to ice for 5 minutes. The receptors were solubilised by the addition of 1% DDM and incubated at 4° C. for 1 hour with gentle agitation. Insoluble material was removed by centrifugation at 16000×g for 10 minutes at 4° C. The solubilised receptors were partially purified with Ni-NTA agarose (Qiagen). Ni-NTA resin was equilibrated in Equilibration buffer (50 mM Tris-HCl, 150 mM NaCl, 2× Complete EDTA-free Protease inhibitor cocktail (Roche), 0.025% DDM, pH7.5) and 400 μl of a 50:50 resin slurry was added to each sample. Resin slurries were incubated at 4° C. for 1 hour 30 minutes with gentle agitation to bind receptors. Resin slurries were then transferred to a batch column filter plate (Chromabond) and centrifuged at 1000×g for 1 minute, discarding the flow-through. Resin was washed twice with 1 ml of Wash buffer (50 mM Tris-HCl, 150 mM NaCl, 2× Complete EDTA-free Protease inhibitor cocktail (Roche), 0.025% DDM, 20 mM Imidazole, pH7.5) and then eluted in 1 ml of Elution buffer (50 mM Tris-HCl, 150 mM NaCl, 2× Complete EDTA-free Protease inhibitor cocktail (Roche), 0.025% DDM, 100 mM histidine, 30 nM [^3H]-CP-376395, 120 nM CP-376395, pH7.5) by resuspension at 4° C. for 30 minutes. Eluted samples were used directly in the thermostability assay. […]

Molecule | Tm (M4 muscarinic receptor) | % of Wildtype binding (5HT2C receptor [1]) | DPM1 (5HT2C receptor [1]) | DPM2 (5HT2C receptor [1]) | Average - BG (5HT2C receptor [1]) | Average (5HT2C receptor [1]) | increase of Tm (5HT2C receptor [2]; agonist SCH23390 bound, versus parent 5HT2C) | thermostability (agonist binding at the destabilising temperature compared to wild type) (5HT2C receptor [3]) | Tm (5HT2C receptor [4]) | Tm (5HT2C receptor [2]; bound to agonist SCH23390) | Tm (CRF1)
B1 | 34.0 °C |  |  |  |  |  |  |  |  |  | 
B2 |  | 19.27% | 2515 DPM | 1897 DPM | 1774.5 | 2206 | 4 °C | increased agonist binding compared to the wild type receptor |  |  | 
B3 |  | 100% | 10202 DPM | 9631 DPM | 9208 | 9916.5 |  |  | 37.1 °C | 43.35 °C | 
B4 |  |  |  |  |  |  |  |  |  |  | 26.8 °C
